From the Immune Epitope Database (IEDB)

What was measured:
HLA-A*01:01 [1] = assay: IEDB peptide-MHC binding, purified MHC/direct/fluorescence; filed as Kd, often an IC50 or EC50 that approximates it; ≥ and ≤ were set here for values at or beyond the usual limits of such assays
HLA-A*02:01 = assay: as above
HLA-A*03:01 = assay: as above
HLA-A*11:01 [2] = assay: as above
HLA-A*31:01 [3] = assay: as above
HLA-B*07:02 = assay: as above
HLA-B*15:17 [4] = assay: as above; conditions: source organism: Escherichia coli O157:H7
HLA-B*27:05 = assay: as above
HLA-B*40:01 = assay: as above
HLA-B*46:01 = assay: as above
HLA-B*48:01 = assay: as above; conditions: source organism: Escherichia coli O157:H7
HLA-B*57:01 [5] = assay: as above; conditions: source organism: Escherichia coli O157:H7
HLA-B*58:01 [6] = assay: as above
HLA-A*02:06 = assay: IEDB peptide-MHC binding, purified MHC/competitive/fluorescence; filed as Kd, often an IC50 or EC50 that approximates it; ≥ and ≤ were set here for values at or beyond the usual limits of such assays
HLA-A*26:02 = assay: as above
HLA-A*68:02 = assay: as above
HLA-A*69:01 [7] = assay: as above
HLA-B*15:01 [8] = assay: as above; conditions: source organism: Escherichia coli
HLA-A*02:16 = assay: IEDB peptide-MHC binding, purified MHC/direct/fluorescence; filed as Kd, often an IC50 or EC50 that approximates it; ≥ and ≤ were set here for values at or beyond the usual limits of such assays; conditions: source organism: Mycobacterium tuberculosis
HLA-A*69:01 [9] = assay: as above
HLA-A*02:50 = assay: IEDB peptide-MHC binding, purified MHC/competitive/fluorescence; filed as Kd, often an IC50 or EC50 that approximates it; ≥ and ≤ were set here for values at or beyond the usual limits of such assays
HLA-A*26:01 = assay: IEDB peptide-MHC binding, purified MHC/direct/fluorescence; filed as Kd, often an IC50 or EC50 that approximates it; ≥ and ≤ were set here for values at or beyond the usual limits of such assays
HLA-B*08:01 [10] = assay: as above
HLA-B*15:01 [11] = assay: as above
HLA-B*15:02 = assay: as above
HLA-B*35:01 [12] = assay: as above
HLA-B*44:02 = assay: as above
HLA-A*24:02 = assay: as above; conditions: source organism: Escherichia coli O157:H7
HLA-B*18:01 [13] = assay: as above; conditions: source organism: Escherichia coli O157:H7
HLA-C*03:03 = assay: as above; conditions: source organism: Escherichia coli O157:H7 str. EDL933
HLA-A*01:01 [14] = assay: IEDB peptide-MHC binding, purified MHC/competitive/fluorescence; filed as Kd, often an IC50 or EC50 that approximates it; ≥ and ≤ were set here for values at or beyond the usual limits of such assays; conditions: source organism: Human immunodeficiency virus 1
HLA-A*02:03 = assay: as above; conditions: source organism: Human immunodeficiency virus 1
HLA-A*11:01 [15] = assay: as above; conditions: source organism: Human immunodeficiency virus 1
HLA-A*30:01 = assay: as above; conditions: source organism: Human immunodeficiency virus 1
HLA-A*31:01 [16] = assay: as above; conditions: source organism: Human immunodeficiency virus 1
HLA-B*08:01 [17] = assay: as above; conditions: source organism: Human immunodeficiency virus 1
HLA-B*15:17 [18] = assay: as above; conditions: source organism: Human immunodeficiency virus 1
HLA-B*18:01 [19] = assay: as above; conditions: source organism: Human immunodeficiency virus 1
HLA-B*35:01 [20] = assay: as above; conditions: source organism: Human immunodeficiency virus 1
HLA-B*39:01 = assay: as above; conditions: source organism: Human immunodeficiency virus 1
HLA-B*57:01 [21] = assay: as above; conditions: source organism: Human immunodeficiency virus 1
HLA-B*58:01 [22] = assay: as above; conditions: source organism: Human immunodeficiency virus 1
[23] = source organism: Escherichia coli O157:H7
[24] = source organism: Escherichia coli
[25] = source organism: Mycobacterium tuberculosis
[26] = source organism: Vibrio vulnificus
[27] = source organism: Listeria monocytogenes serotype 4b str. H7858
[28] = source organism: Listeria monocytogenes
[29] = source organism: Human immunodeficiency virus 1
[30] = source organism: Giardia lamblia ATCC 50803

Sequence: EQRLIDICV
- Kd (HLA-A*01:01 [1]; [23]): ≥ 20 µM
- Kd (HLA-A*02:01; [23]): ≥ 20 µM
- Kd (HLA-A*03:01; [23]): ≥ 20 µM
- Kd (HLA-A*11:01 [2]; [23]): ≥ 20 µM
- Kd (HLA-A*31:01 [3]; [23]): ≥ 20 µM
- Kd (HLA-B*07:02; [23]): ≥ 20 µM
- Kd (HLA-B*15:17 [4]): ≥ 20 µM
- Kd (HLA-B*27:05; [23]): ≥ 20 µM
- Kd (HLA-B*40:01; [23]): ≥ 20 µM
- Kd (HLA-B*46:01; [23]): ≥ 20 µM
- Kd (HLA-B*48:01): ≥ 20 µM
- Kd (HLA-B*57:01 [5]): ≥ 20 µM
- Kd (HLA-B*58:01 [6]; [23]): ≥ 20 µM
- Kd (HLA-A*02:06; [24]): 0.846 µM
- Kd (HLA-A*26:02; [24]): ≥ 20 µM
- Kd (HLA-A*68:02; [24]): ≥ 20 µM
- Kd (HLA-A*69:01 [7]; [24]): ≥ 20 µM
- Kd (HLA-B*15:01 [8]): 0.863 µM

Sequence: LLLRPFWPA
- Kd (HLA-A*02:01; [25]): 0.113 µM
- Kd (HLA-A*02:16): 0.01 µM
- Kd (HLA-A*69:01 [9]; [25]): 0.0303 µM
- Kd (HLA-A*02:50; [25]): 0.0091 µM

Sequence: IQTHCEVGY
- Kd (HLA-A*01:01 [1]; [26]): ≥ 20 µM
- Kd (HLA-A*02:01; [26]): ≥ 20 µM
- Kd (HLA-A*03:01; [26]): ≥ 20 µM
- Kd (HLA-A*11:01 [2]; [26]): ≥ 20 µM
- Kd (HLA-A*26:01; [26]): ≥ 20 µM
- Kd (HLA-A*31:01 [3]; [26]): ≥ 20 µM
- Kd (HLA-A*69:01 [9]; [26]): ≥ 20 µM
- Kd (HLA-B*07:02; [26]): ≥ 20 µM
- Kd (HLA-B*08:01 [10]; [26]): ≥ 20 µM
- Kd (HLA-B*15:01 [11]; [26]): 0.285 µM
- Kd (HLA-B*15:02; [26]): ≥ 20 µM
- Kd (HLA-B*27:05; [26]): ≥ 20 µM
- Kd (HLA-B*35:01 [12]; [26]): 0.94 µM
- Kd (HLA-B*40:01; [26]): ≥ 20 µM
- Kd (HLA-B*44:02; [26]): ≥ 20 µM
- Kd (HLA-B*46:01; [26]): ≥ 20 µM
- Kd (HLA-B*58:01 [6]; [26]): ≥ 20 µM

Sequence: LMKAPGTYH
- Kd (HLA-B*07:02; [27]): ≥ 20 µM
- Kd (HLA-B*15:01 [11]; [28]): 0.0668 µM
- Kd (HLA-B*15:02; [28]): 0.258 µM
- Kd (HLA-B*35:01 [12]; [27]): ≥ 20 µM
- Kd (HLA-B*46:01; [28]): 4.83 µM

Sequence: YLFQWNDNV
- Kd (HLA-A*01:01 [1]; [23]): ≥ 20 µM
- Kd (HLA-A*02:01; [23]): 0.0021 µM
- Kd (HLA-A*03:01; [23]): ≥ 20 µM
- Kd (HLA-A*11:01 [2]; [23]): ≥ 20 µM
- Kd (HLA-A*24:02): ≥ 20 µM
- Kd (HLA-A*69:01 [9]; [23]): 0.0036 µM
- Kd (HLA-B*07:02; [23]): ≥ 20 µM
- Kd (HLA-B*15:01 [11]; [23]): 1.71 µM
- Kd (HLA-B*18:01 [13]): ≥ 20 µM
- Kd (HLA-B*27:05; [23]): ≥ 20 µM
- Kd (HLA-B*40:01; [23]): ≥ 20 µM
- Kd (HLA-B*44:02; [23]): ≥ 20 µM
- Kd (HLA-B*58:01 [6]; [23]): ≥ 20 µM
- Kd (HLA-C*03:03): ≥ 20 µM
- Kd (HLA-A*02:50; source organism: Escherichia coli O157:H7 str. EDL933): ≤ 0.0001 µM

Sequence: KSLFNTVATLY
- Kd (HLA-A*01:01 [14]): 2.11 µM
- Kd (HLA-A*02:03): 0.19 µM
- Kd (HLA-A*02:06; [29]): 0.155 µM
- Kd (HLA-A*11:01 [15]): 0.233 µM
- Kd (HLA-A*26:02; [29]): ≥ 20 µM
- Kd (HLA-A*30:01): ≥ 20 µM
- Kd (HLA-A*31:01 [16]): ≥ 20 µM
- Kd (HLA-A*68:02; [29]): 3.47 µM
- Kd (HLA-A*69:01 [7]; [29]): 2.84 µM
- Kd (HLA-B*08:01 [17]): ≥ 20 µM
- Kd (HLA-B*15:17 [18]): 0.0038 µM
- Kd (HLA-B*18:01 [19]): 0.242 µM
- Kd (HLA-B*35:01 [20]): 2.41 µM
- Kd (HLA-B*39:01): ≥ 20 µM
- Kd (HLA-B*57:01 [21]): 0.235 µM
- Kd (HLA-B*58:01 [22]): 0.0028 µM

Sequence: LLPYPIAGC
- Kd (HLA-A*01:01 [1]; [30]): ≥ 20 µM
- Kd (HLA-A*02:01; [30]): 5.1 µM
- Kd (HLA-A*03:01; [30]): ≥ 20 µM
- Kd (HLA-A*11:01 [2]; [30]): ≥ 20 µM
- Kd (HLA-A*26:01; [30]): ≥ 20 µM
- Kd (HLA-A*31:01 [3]; [30]): ≥ 20 µM
- Kd (HLA-A*69:01 [9]; [30]): 4.2 µM
- Kd (HLA-B*07:02; [30]): ≥ 20 µM
- Kd (HLA-B*08:01 [10]; [30]): ≥ 20 µM
- Kd (HLA-B*15:01 [11]; [30]): ≥ 20 µM
- Kd (HLA-B*27:05; [30]): ≥ 20 µM
- Kd (HLA-B*40:01; [30]): ≥ 20 µM
- Kd (HLA-B*44:02; [30]): ≥ 20 µM
- Kd (HLA-B*58:01 [6]; [30]): ≥ 20 µM
- Kd (HLA-A*02:50; source organism: Giardia intestinalis ATCC 50581): 0.0235 µM
